According to paper PMC12905490, “Identification and functional characterization of two CXCL17 paralogs from zebrafish” (Biochemical Journal, 2026):

Legend:
[1] = target: sLgBiT-Dr-GPR25 (zebrafish (Danio rerio)); test: split reporter (BiFC, NanoBiT); NanoBiT-based competition binding: constant 6 × His-SmBiT-Dr-CXCL17-like tracer and varied competitors on living HEK293T cells expressing sLgBiT-Dr-GPR25; serum-free DMEM, 0.1% BSA, 0.01% Tween-20, room temperature ~1 h
sLgBiT-Dr-GPR25 [2] = target: T1, sLgBiT-Dr-GPR25 (zebrafish (Danio rerio), UniProt A0AC58GT18 1-377); test: as above; conditions: one partner purified
T1 construct: G protein-coupled receptor 25 (GPR25), zebrafish (Danio rerio); In one experiment it was coexpressed with human TPST1 and TPST2; sulfation of the N-terminal tyrosines is only called potential; The chemotaxis assays used untagged Dr-GPR25 (PB-TRE/Dr-GPR25); also called N-terminally secretory LgBiT-fused Dr-GPR25; zebrafish GPR25; source: HEK293T, transfected (PB-TRE/sLgBiT-Dr-GPR25), Dox-induced, …
T1 sequence (looked up): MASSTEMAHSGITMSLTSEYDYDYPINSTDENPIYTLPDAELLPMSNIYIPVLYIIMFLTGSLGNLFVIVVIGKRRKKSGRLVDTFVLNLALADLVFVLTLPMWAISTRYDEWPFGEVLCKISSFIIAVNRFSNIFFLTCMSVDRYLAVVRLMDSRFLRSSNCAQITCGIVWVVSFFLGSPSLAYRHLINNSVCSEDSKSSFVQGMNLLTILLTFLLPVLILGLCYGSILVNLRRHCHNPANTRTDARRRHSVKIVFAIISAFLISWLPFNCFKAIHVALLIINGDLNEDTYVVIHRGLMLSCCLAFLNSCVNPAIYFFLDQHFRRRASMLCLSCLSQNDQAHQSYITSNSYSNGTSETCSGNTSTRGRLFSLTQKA

sLgBiT-Dr-GPR25 [3] = target: T1, sLgBiT-Dr-GPR25; test: split reporter (BiFC, NanoBiT); NanoBiT-based homogeneous saturation binding as before, but sLgBiT-Dr-GPR25 coexpressed with human TPST1 and TPST2 in HEK293T cells; serum-free DMEM, 0.1% BSA, 0.01% Tween-20, room temperature ~1 h; conditions: one partner purified
sLgBiT-Dr-GPR25 [4] = target: T1, sLgBiT-Dr-GPR25; test: split reporter (BiFC, NanoBiT); NanoBiT-based homogeneous saturation binding: varied 6 × His-SmBiT-Dr-CXCL17-like on living HEK293T cells overexpressing sLgBiT-Dr-GPR25, without coexpression of TPST1 and TPST2; serum-free DMEM, 0.1% BSA, 0.01% Tween-20, room temperature ~1 h; non-specific binding with 1.0 μM unlabeled 6 × His-Dr-CXCL17-like; conditions: one partner purified

6 × His-Dr-CXCL17 (ligand)
IC50 [1]: 380 nM

B1: 6 × His-Hs-CXCL17 (ligand, human, UniProt Q6UXB2 22-119, looked up)
chain: SSLNPGVARGHRDRGQASRRWLQEGGQECECKDWFLRAPRRKFMTVSGLPKKQCPCDHFKGNVKKTRHQRHHRKPNKHSRACQQFLKQCQLRSFALPL
notes: C-X-C motif chemokine ligand 17 (CXCL17), human; likely the mature peptide with an N-terminal 6 × His tag, as for the zebrafish proteins (surmised); also called Recombinant human CXCL17; source: recombinant
IC50 (sLgBiT-Dr-GPR25 [2]): ~230 nM

B2: 6 × His-SmBiT-Dr-CXCL17-like (ligand, zebrafish (Danio rerio), UniProt A0AB13AB19 26-95, looked up)
chain: QRRSMKQSAVCGCKLYPDKGLKCTKRPNPKSRDEYYEILKCICRDTQIFSKSSRKEYLKRCNKFYPSLPL
notes: Dr-CXCL17-like, zebrafish (Danio rerio, Tübingen strain), mature peptide of 70 amino acids (residues 26-95 of the 95-residue precursor; predicted signal peptide of 25 residues left out); also called tracer; SmBiT-tagged tracer; not shown: His6, N-terminal, kept; SmBiT, N-terminal, kept
Kd (sLgBiT-Dr-GPR25 [3]): 7.1 ± 0.9 nM | Kd (sLgBiT-Dr-GPR25 [4]): 7.5 nM

B3: 6 × His-Dr-CXCL17-like (ligand, zebrafish (Danio rerio), UniProt A0AB13AB19 26-95, looked up)
chain: B2 chain
notes: Dr-CXCL17-like, zebrafish (Danio rerio, Tübingen strain), mature peptide of 70 amino acids (residues 26-95 of the 95-residue precursor; predicted signal peptide of 25 residues left out); also called zebrafish CXCL17-like; A0AB13AB19; not shown: His6, N-terminal, kept
IC50 (sLgBiT-Dr-GPR25 [2]): ~13 nM
